The nanobody polyreactivity screen of Harvey et al. (2022)

assay: yeast display, Sf9 membrane polyspecificity reagent, FACS + sequencing; frameworks hold sequencing errors
Method in brief: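 Using colony PCR, genes from sorted yeast display clones were amplified, then sequenced on MiSeq at 2 × 250 and filtered by CDR length. The clones had been stained with 10% biotinylated, detergent-solubilized Sf9 membrane reagent for 1 hour at 4 °C and sorted by FACS into low and high (top ~1%) gates on anti-HA and streptavidin fluorescence. Polyreactivity labels come from the gate of origin.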

Sequence | polyreactivity (PSR sort gate)
QVQLVESGGGLVQAGGSLRLSCAASGRIFGYYVMGWYRPAPGKERELVAAISRSGGSTYYADSVKGRFTISRDNAKNTVYLQMNSLKPEDTAVYYCAKRVSTYGFSGYDYWGQGTQVTVSS | high polyreactivity
QVQLVESGGGLVQAGGSLRLSCAASGRIFHANAMGWYRQAPGKERELVAGISRNGGRTYYADSVKGRFTISRDNAKNTVYLQMNSLKPEDTAVYYCAKGHKFRFDYWGQGTQVTVSS | high polyreactivity
QVQLVESGGGLVQAGGSLRLSCAASGRIFHFYAMGWYRQAPGKERELVAAISWSGGSTYYADSVKGRFTISRDNAKNTVYLQMNSLKPEDTAVYYCSKVRGEVAHRKVQYDYWGQGTQVTVSS | low polyreactivity
QVQLVESGGGLVQAGGSLRLSCAASGRIFHFYVMGWYRQAPGKERELVASITRGGNTNYADSVKGRFTISRDNAKNTVYLQMNSLKPEDTAVYYCNGEGYYTRDDSWGQGTQVTVSS | low polyreactivity
QVQLVESGGGLVQAGGSLRLSCAASGRIFHGNAMGWYRQAPGKERELVAAITSGGRTFYADSVKGRFTISRDNAKNTVYLQMNSLKPEDTAVYYCNAPSIAGYAEYNSHDYWGQGTQVTVSS | high polyreactivity
QVQLVESGGGLVQAGGSLRLSCAASGRIFHPNAMGWYRRATGKERELVAAISRSGSTYYADSVKGRFTISRDNAKNTVYLQMNSLKPEDTAVYYCATQTWSGYSGTPRIYDYWGQGTQVTVSS | high polyreactivity
QVQLVESGGGLVQAGGSLRLSCAASGRIFHQYGMGGYSQAPGKERELVAAIRSGDSTNYADSVKGRFTISRDNAKNTVYVQMNSLKPEDTAVYYCARDRPGDYAGYDYWGQGTQVTVSS | low polyreactivity
QVQLVESGGGLVQAGGSLRLSCAASGRIFHSKAMGWYRQAPGKERELVAAITWSTGRTYYADSVKGRFTISRDNAKNTVYLQMNSLKPEDTAVYYCFRFSYYTGDYWGQGTQVTVSS | high polyreactivity
QVQLVESGGGLVQAGGSLRLSCAASGRIFHYNDMVWYRQAPGKEREFVATIRYSGGSTYYADSVKGRFTISRDNAKNTVYLQLNSLKPEDTAVYYCATSRRYLRFRNYYGYDYWGQGTQVTVSS | high polyreactivity
QVQLVESGGGLVQAGGSLRLSCAASGRIFHYYAMGWYRQAPGKERELVAAITSSGGSTYYADSVKGRFTISRDNAKNTVYLQMNSLKPEDTAVYYCAAGLIVGRFLRYDYWGQGTQVTVSS | high polyreactivity
QVQLVESGGGLVQAGGSLRLSCAASGRIFIGNAMGWYRQAPGKERELVAAITWSGDDSTYYADSVKGRFTISRDNAKITVYLQMNSLKTEDTAVYYCAAYSYYYEYNYWGQGTQVTVSS | low polyreactivity
QVQLVESGGGLVQAGGSLRLSCAASGRIFINVLGWSRQAPGKETELVATITNSGGSTYYADSVKGRFTISRDNAKNTVYLQMNSLKPEDTAVYYCAKRSYHRYGVYRYDYWGQGTQLTVSS | high polyreactivity
QVQLVESGGGLVQAGGSLRLSCAASGRIFIRNAMGWYRQAPGKERELVAAITWSGGGTYYADSVKGRFTISRDNAKNTVYLQMNSLKPEDTAVYYCNVDITGYEDDYWGQGTQVTVSS | low polyreactivity
QVQLVESGGGLVQAGGSLRLSCAASGRIFISNAKGWYIQAPGKERELVAAITWIGDRTYYADSVKGRFTISRDNAKITVYLEMNSLKPEDTAVYYCNRVTSRVSGRYSYEYWGQVTQVTVSS | high polyreactivity
QVQLVESGGGLVQAGGSLRLSCAASGRIFIYYAMGWDRQAPGKERELVAAISWGGGRTYYADSVKGRFTISRDNAKNTVYLQMNSLKPEDTAVYYCAAGVYTGQHEYDYWGQGTQVTVSS | low polyreactivity
QVQLVESGGGLVQAGGSLRLSCAASGRIFIYYAMGWYRQAPGKERELVAAISWGGGRTYYADSVKGRFTITRDNAKNTVYLQINSLKPEDTAVYYCAAGVYTGQHEYDYWGQGTQVTVSS | low polyreactivity
QVQLVESGGGLVQAGGSLRLSCAASGRIFIYYAMGWYRQAPGKERELVAAITRGGNTNYADSVKGRFTISRDNAKNTVYLQMNSLKPEDTAVYYCAAAIRYGSRHRGYWGQGTQVTVSS | low polyreactivity
QVQLVESGGGLVQAGGSLRLSCAASGRIFKDNAMGWYRQAPGKERELLATIDSGGDTNYADSVKGRFTISRDNAKNTVYLQMNSLKPEDTAVYYCNTEGFLSAVFAFGYWGQGTQVTVSS | low polyreactivity
QVQLVESGGGLVQAGGSLRLSCAASGRIFKDYAMGLYRQAPGKERELVAGIDYRGGSTYYADSVKGRFTISRDNAKNTVYLQMNSLKPEDNAVYYCAADSLISIYDYWGQGTQVTVSS | low polyreactivity
QVQLVESGGGLVQAGGSLRLSCAASGRIFKFNAMGWYREAPGKERELVAAITTGGGSTYYADSVKGRFTISRDNAKNTVYLQMNSLKPEDTAVYYCATDRRHEYSSRRYYYWGQGTQVTVSS | high polyreactivity
QVQLVESGGGLVQAGGSLRLSCAASGRIFKFYTMGWDRQAPGKERELVASIDSTGGSTYYADSVKGRFTISRDNAKNTVYLQMNSLKPEDTAVYYCAAEWIWSSNWYKKYDYWGQGSQVTVSS | high polyreactivity
QVQLVESGGGLVQAGGSLRLSCAASGRIFKGYAMGWYRQAPGKERELVAAITWRGGTTYYADSVKGRFTISRDNAKNTVYLQMNSLKPEDTAVYYCATTRYPRSYQEFGYWGQGTQVTVSS | high polyreactivity

Sequence | polyreactivity (PSR sort gate)
QVQLVESGGGLVQAGGSLRLSCAASGRIFKGYAMGWYRQAPGKERELVAAITWRGGTTYYADSVKGRFTISRDNAKNTVYLQMTSLKPEDTAVYYCARARPTGYNYWGQGTQVTVSS | high polyreactivity
QVQLVESGGGLVQAGGSLRLSCAASGRIFKNNAMGWYRQAPGKERELVAGISRSGGRTYYADSVKGRFTISRDNAKNTVYLQMNSLKPEDTAVYYCNAYAYYSHGVTTTYDYWGQGTQVTVSS | high polyreactivity
QVQLVESGGGLVQAGGSLRLSCAASGRIFKRSVMGWYRQAPGKERELVAAITGRGGSTYYADSVKGRFTISRDNAKNTVYLQMNSLKPEDTAVYYCNAKDAEHYERFNYWGQGTQVTVSS | low polyreactivity
QVQLVESGGGLVQAGGSLRLSCAASGRIFKRYAMGWYRQAHGKERELVASITWSGGSTYYADSVKGRFTISRDNAKNTVYLQMNSLKPEDTEVYYCAARRTATTSRAYYYWGQGTQVTVSS | high polyreactivity
QVQLVESGGGLVQAGGSLRLSCAASGRIFKRYAMGWYRQAPGKERELVAAITRSGTRTYYADSVKGRFTISRDNAKNTVYLQMNSLKPEDTAVYYCAAALGWYSAFGYWGQGTLVTVSS | high polyreactivity
QVQLVESGGGLVQAGGSLRLSCAASGRIFKRYAMGWYRQAPGKERELVAAITYNSGSTYYADSVKGRFTISRDNAKNTVYLQMNSLKPEDTAVYYCAAEKWSDQSPRGDYWGQGTQVTVSS | low polyreactivity
QVQLVESGGGLVQAGGSLRLSCAASGRIFKSYVMGWYRQAPGKERELVAAITRTGGSTYYADSVKGRFTISRDNAKYTVYLQMNSLTPEDTAVYYCNARYSWPRATWYDYWGQGTQVTVSS | high polyreactivity
QVQLVESGGGLVQAGGSLRLSCAASGRIFKTNAMGWYRQAPGKERELVAAISWRGVGTYYADSVKGRFTISRDNAKNTVYLQMNSLKPEDTAVYYCAARWTVPRDTAPSKGYDYWGQGTQVTVSS | low polyreactivity
QVQLVESGGGLVQAGGSLRLSCAASGRIFKTYTMGWYRQAPGKERELVAVITSGGGTYYADSVKGRFTISRDNAKNTVYLQMNSLKPEDTAVYYCAARGLESPYGYWGQGTQVTVSS | low polyreactivity
QVQLVESGGGLVQAGGSLRLSCAASGRIFKVNAMGWYRQAPGKERELVAVINSRGGSTYYADSVKGRFTISRDNAKNTVYLQMNSLKPEDTAVYYCAAPLTYFKRVYYWGQGTQVTVSS | high polyreactivity
QVQLVESGGGLVQAGGSLRLSCAASGRIFKWNAMGWYRQAPGKERELVAAISLSGGSTYYADSVKGRFTISRDKAKNTVYLQMNSLKPEDTAVYYCNAYAYHRYGYWGQGTQVTVSS | high polyreactivity
QVQLVESGGGLVQAGGSLRLSCAASGRIFKWNAMGWYRQAPGKERELVAAISTSGGNTYYADSVKGRFTISRDYAKNTVYLQMNSLKPEDTAVYYCAATYPNSLRQVGYWGQGTQVTVSS | high polyreactivity
QVQLVESGGGLVQAGGSLRLSCAASGRIFKYNAMGWYRQAPGKERELVAAIRRSGGSTYYADSVKGRFTISRDNAKNPVYLQMNSLNPEDTAVYYCAATGYVGGIYGHYPRGYWGQGTQVTVSS | high polyreactivity
QVQLVESGGGLVQAGGSLRLSCAASGRIFKYNAMGWYRQAPGKERELVAAISGRGVSTYYADSVKGRFTISRDNAKNTVYLQMNSLKPEDTAVYYCAAETVHGSADFDYWGQGTKVTVSS | low polyreactivity
QVQLVESGGGLVQAGGSLRLSCAASGRIFKYYAMGWFRQAPGKERELVAAISSGSSTNYADSVKGRFTISRDTAKNTVYLQMNSLKPEDTAVYYCAAKYYRSKFDFWGQGTQVTVSS | high polyreactivity
QVQLVESGGGLVQAGGSLRLSCAASGRIFKYYAMGWYRQAPGKERELVAAINRDGGRTYYADSVKGRFTISRDNAKNTVYLQMNRLKPDDTAVYYCAASYGYWGQGSQVTVSS | low polyreactivity
QVQLVESGGGLVQAGGSLRLSCAASGRIFKYYAMGWYRQAPGKERELVAAISRGGSTYYADSVKGRFTISRDNAKNTVYLQMNSLKPEDTAVYYCNRLSNNREYDYWGQGTQVTVSS | high polyreactivity
QVQLVESGGGLVQAGGSLRLSCAASGRIFKYYAMGWYRQAPGKERELVARISSRGGSTNYADSVKGRFTISRDNAKNTVYLQMNSLKPEDTAVYYCAAQYQNFPYGYWGQGTQVTVSS | high polyreactivity
QVQLVESGGGLVQAGGSLRLSCAASGRIFKYYAMGWYRQPPGKERELVAAISRSSGRTYYADSVKGRCTISRDNAKNTVYFQMIRLKPEDTAVYYCNALPSTVYLTYDYWGLGTQVTVSS | high polyreactivity
QVQLVESGGGLVQAGGSLRLSCAASGRIFLANAMGWSRQAPGKERELVAAISLSGGRTYYADSVKGRFTISRDNAKNTVYLQMNSLKPEDTAVYYCAAEFYPIRYYGGYDYWGQGTLVTVSS | low polyreactivity
QVQLVESGGGLVQAGGSLRLSCAASGRIFLFYAMGGYRQAPGKERELVAAISSTDDTYYADSVKGRFTISRDNAKNTVYLQMNSLKPEDTAVYYCAAYSIISQSEMYYWGQGTQVTVSS | low polyreactivity
